Experiments:
human FcγRIIIa-158F [1] = biological target: T1, human FcγRIIIa-158F (human, UniProt P08637 17-208, limits assumed); test: Biacore (SPR); ratio of KD against rituximab
T1 construct: also called FcγRIIIa aa158F allele

human FcγRIIIa-158F [2] = biological target: T1, human FcγRIIIa-158F; test: Biacore (SPR)
human FcγRIIIa-158V = biological target: T2, human FcγRIIIa-158V (human, UniProt P08637 17-208); test: Biacore (SPR)
T2 construct: also called FcγRIIIa aa158V allele
T2 sequence (P08637 17-208 F176V): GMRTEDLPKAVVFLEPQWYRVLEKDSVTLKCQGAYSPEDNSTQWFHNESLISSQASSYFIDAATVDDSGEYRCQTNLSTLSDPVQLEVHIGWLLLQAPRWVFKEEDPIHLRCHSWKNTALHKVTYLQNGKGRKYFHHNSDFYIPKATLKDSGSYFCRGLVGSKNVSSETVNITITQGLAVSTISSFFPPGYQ

T1 sequence (P08637 17-208 limits assumed): as the sequence (P08637 17-208 F176V) above, with V160F counted along it

fold higher affinity compared with rituximab (human FcγRIIIa-158F [1]): 4.6 fold
Kd (human FcγRIIIa-158F [2]): 2800 nM
Kd (human FcγRIIIa-158V): 492 nM
B1: monoclonal antibody CHIR-12.12 (antibody, human IgG1, kappa)
heavy: not shown
light: DIVMTQSPLSLTVTPGEPASISCRSSQSLLYSNGYNYLDWYLQKPGQSPQVLISLGSNRASGVPDRFSGSGSGTDFTLKISRVEAEDVGVYYCMQARQTPFTFGPGTKVDIRRTVAAPSVFIFPPSDEQLKSGTASVVCLLNNFYPREAKVQWKVDNALQSGNSQESVTEQDSKDSTYSLSSTLTLSKADYEKHKVYACEVTHQGLSSPVTKSFNRGEC
notes: Fully human IgG1 kappa anti-CD40 antibody; also called CH12.12
